Results: patent US20250049896A1 (Regeneron, published 2025)
Where a chain is given by its changes, count along the chain named.

B1: 31863B anti-human TfR IgG1 monoclonal antibody (antibody, V domains shown)
VH: EVQLVESGGGLVQPGGSLRLSCAASGFTFNSYAMTWVRQAPGKGLEWVSFIGGSTGNTYYAGSVKGRFTISSDNSKKTLYLQMNSLRAEDTAVYYCAKGGAARRMEYFQHWGQGTLVTVSS
VL: DIQMTQSPSSLSASIGDRVTITCRASQGISNYLAWYQQKPGKVPKLLIYAASTLQSGVPSRFSGSGSGTDFTLTISSLQPEDVATYYCQNHNSVPLTFGGGTKVEIKR
notes: Tested as bivalent IgG1 from CHO primary supernatant
B2: 31863B (antibody, human IgG1, kappa, V domains shown)
VH: B1 VH
VL: B1 VL
notes: Tested as bivalent human IgG1 from CHO primary supernatant
B3: 69331 anti-human TfR IgG1 monoclonal antibody (antibody, V domains shown)
VH: QVQLVESGGGVVQPGRSLRLSCIASGFTFSVYGIHWVRQAPGKGLEWMAVISHDGNIKHYADSVKGRFTISRDNSKNTLYLQINSLRTEDTAVYYCAKDTWNSLDTFDIWGQGTMVTVSS
VL: B1 VL with M4L, I15V, R24W, N31S, V43A, D70E, V83F, N90Q, H91L, V94Y
notes: as for B1
B4: 12845B (antibody, human IgG1, kappa, V domains shown)
VH: EVQLVESGGGLVQPGGSLRLSCAASGFTVSNYEMNWVRQAPGKGLEWVSYISSSTSNIYYADSVKGRFTISRDNAENSLYLQMNSLRVEDTAVYYCVRDGIVVVPVGRGYYYYGLDVWGQGTTVTVSS
VL: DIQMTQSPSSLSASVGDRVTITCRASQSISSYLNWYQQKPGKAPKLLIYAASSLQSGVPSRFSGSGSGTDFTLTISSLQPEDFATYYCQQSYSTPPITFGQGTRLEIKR
notes: Tested as bivalent human IgG1 from CHO primary supernatant; also called H1H12845B; REGN17513
B5: 69332 (antibody, human IgG1, kappa, V domains shown)
VH: QVTLRESGPALVKPSQTLTLTCTFSGFSLNTYGMFVSWIRQPPGKALEWLAHIHWDDDKYYSTSLKTRLTISKDTSKNQVVLTMTNMDPVDTATYYCARGHNNLNYIIHWGQGTLVTVSS
VL: AIQMTQSPSSLSASVGDRVTITCRASQGIRNDLGWYQQKPGKAPKLLIYAASTLQSGVPSRFSGSGSGTDFTLTISSLQPEDFATYYCLQDYNYPFTFGPGTKVDIKR
notes: as for B2
B6: 12839B (antibody, human IgG1, kappa, V domains shown)
VH: QVQLVESGGGVVQPGRSLRLSCAASGFPFSNYVMYWVRQAPGKGLEWVALIFFDGKKNYHADSVKGRFTITRDNSKNMLYLQMNSLRPEDAAVYYCAKIHCPNGVCYKGYYGMDVWGQGTTVTVSS
VL: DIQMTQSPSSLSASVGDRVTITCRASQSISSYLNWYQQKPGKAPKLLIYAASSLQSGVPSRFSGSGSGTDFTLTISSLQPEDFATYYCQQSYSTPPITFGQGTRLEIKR
notes: Tested as bivalent human IgG1 from CHO primary supernatant; also called H1H12839B; REGN17510
B7: 12795B (antibody, human IgG1, kappa, V domains shown)
VH: EVQLVESGGGLVQPGGSLRLSCATSGFTFTSYDMKWVRQAPGLGLEWVSAISGSGGNTYYADSVKGRFTISRDNSRNTLYLQMNSLRAEDTAVYYCTRSHDFGAFDYFDYWGQGTLVTVSS
VL: DIQMTQSPSSLSASVGDRVTITCRASQGIRDHFGWYQQKPGKAPKRLIYAASSLHSGVPSRFSGSGSGTEFTLTISSLQPEDFATYYCLQYDTYPLTFGGGTKVEIKR
notes: as for B2
B8: 12795B anti-human TfR IgG1 monoclonal antibody (antibody, V domains shown)
VH: B7 VH
VL: B7 VL
notes: as for B1
B9: 12841B (antibody, human IgG1, kappa, V domains shown)
VH: EVQLVESGGGLVQPGGSLRLSCAASGFTFSNYWMNWVRQAPGKGLEWVANIKEDGGKKLYVDSVKGRFTISRDNAKNSLFLQMNSLRAEDTAVYYCAREDTTLVVDYYYYGMDVWGQGTTVTVSS
VL: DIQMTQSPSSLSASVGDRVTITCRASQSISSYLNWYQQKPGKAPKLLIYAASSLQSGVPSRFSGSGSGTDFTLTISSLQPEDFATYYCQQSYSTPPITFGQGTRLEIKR
notes: Tested as bivalent human IgG1 from CHO primary supernatant; also called H1H12841B; REGN17511
B10: 69305 (antibody, human IgG1, kappa, V domains shown)
VH: QVQLVESGGGVVQPGRSLRLSCAASGFTFSSYGMHWVRQAPGKGLEWVAVIWYDGSNKYYADSVKGRFTISRDISKNTLYLQMNSLRAEDTAVYYCAGQLDLFFDYWGQGTLVTVSS
VL: DIQMTQSPSSLSASVGDRVTITCRASQSIDRYLNWYRQKPGKAPKLLIYTTSSLQSGVPSRFSGSGSGTDFTLTLSSLQPEDFATYYCQQSYSPPLTFGGGTKVEIKR
notes: as for B2

Assays:
[1] = molecular target: T1, REGN2431 (hmm.hTfRC); monomeric human Tfrc ectodomain, amino acids C89-F760, with N-terminal … (human, UniProt P02786 89-760); test: SPR (Biacore), mAb from CHO supernatant captured on anti-human Fc, 100 nM hTfR-mmh injected, 25 C
T1 construct: also called hTfR-mmh; hTFR-mmh
Experimental: (§1) Biacore binding kinetics assays were conducted for the interaction of 32 anti-human TfR IgG1 monoclonal antibodies from CHO supernatants with TfR reagents at 25° C.
(§2) Equilibrium dissociation constants (KD) for the interaction of anti-TfR monoclonal antibodies with human and fascicularis monkey TfR ecto domain recombinant proteins were determined using a real-time surface plasmon resonance (SPR) based Biacore S200 biosensor. All binding studies were performed in 10 mM HEPES, 150 mM NaCl, 3 mM EDTA, and 0.05% v/v surfactant Tween-20, pH 7.4 (HBS-EP) running buffer at 37° C. The Biacore CM5 sensor surface was first derivatized by amine coupling with a monoclonal mouse anti-human Fc antibody (REGN2567) followed by a step to capture anti-TfR monoclonal antibodies in CHO conditioned media. […] The dissociation of TfR bound to anti-TfR monoclonal antibodies was monitored for 3 minutes in HBS-EP running buffer. At the end of each cycle, the anti-TfR monoclonal antibodies capture surface was regenerated using a 12-sec injection of 20 mM H₃PO₄. The association rate (ka) and dissociation rate (kd) were determined by fitting the real-time binding sensorgrams to a 1:1 binding model with mass transport limitation using Scrubber 2.0 c software. The dissociation equilibrium constant (KD) and dissociative half-life (t½) were calculated from the kinetic rate constants as: […]

[2] = molecular target: T2, mf TFRC ecto-mmh (REGN2054), monomeric monkey (cyno) Tfrc ectodomain with C-terminal myc-myc-hexahistidine tag (monkey (cyno), Macaca fascicularis, UniProt H9EXL1 89-760); test: SPR (Biacore), mAb captured on anti-human Fc, 100 nM mfTfR-mmh, 25 C
T2 construct: range 89-760; also called mfTfR-mmh; mfTFR-mmh

[3] = molecular target: T3, hmm.hTfRC (REGN2431), human transferrin receptor extracellular domain with hexahistidine-myc-myc tag (human, UniProt P02786 89-760); test: SPR (Biacore), mAb captured on anti-human Fc, 100 nM hTFR-mmh, 25 C; kd fixed at 1.00E-05
T3 construct: Monomeric recombinant protein, 79210 g/mol; also called hTFR-mmh; His-myc-myc-hTFRC ecto
Experimental: as §2, with “All binding studies were performed in 10 mM HEPES, 150 mM NaCl, 3 mM EDTA, and 0.05% v/v surfactant Tween-20, pH 7.4 (HBS-EP) running buffer at 37° C.” left out

[4] = molecular target: T3, hmm.hTfRC (REGN2431), human transferrin …; test: SPR (Biacore), mAb captured on anti-human Fc, 100 nM hTFR-mmh, 25 C
[5] = molecular target: T4, REGN2054 (mf TFRC ecto-mmh); monomeric monkey (cyno) Tfrc ectodomain, amino acids C89-F760, with C-terminal … (cynomolgus monkey (Macaca fascicularis), UniProt H9EXL1 89-760 (rhesus entry)); test: SPR (Biacore), mAb from CHO supernatant captured on anti-human Fc, 100 nM mfTFR-mmh injected, 25 C
T4 construct: range 89-760; also called mfTFR-mmh; mfTfR-mmh
Experimental: as §1, §2

[6] = molecular target: T2, mf TFRC ecto-mmh (REGN2054), monomeric …; test: SPR (Biacore), mAb from CHO supernatant captured on anti-human Fc, 100 nM mfTfR-mmh injected, 25 C
Experimental: as §1, §2

[7] = molecular target: T3, hmm.hTfRC (REGN2431), human transferrin …; test: SPR (Biacore), mAb from CHO supernatant captured on anti-human Fc, 100 nM hTFR-mmh injected, 25 C

T3 sequence (P02786 other isoform, or with tags, fused parts or gaps): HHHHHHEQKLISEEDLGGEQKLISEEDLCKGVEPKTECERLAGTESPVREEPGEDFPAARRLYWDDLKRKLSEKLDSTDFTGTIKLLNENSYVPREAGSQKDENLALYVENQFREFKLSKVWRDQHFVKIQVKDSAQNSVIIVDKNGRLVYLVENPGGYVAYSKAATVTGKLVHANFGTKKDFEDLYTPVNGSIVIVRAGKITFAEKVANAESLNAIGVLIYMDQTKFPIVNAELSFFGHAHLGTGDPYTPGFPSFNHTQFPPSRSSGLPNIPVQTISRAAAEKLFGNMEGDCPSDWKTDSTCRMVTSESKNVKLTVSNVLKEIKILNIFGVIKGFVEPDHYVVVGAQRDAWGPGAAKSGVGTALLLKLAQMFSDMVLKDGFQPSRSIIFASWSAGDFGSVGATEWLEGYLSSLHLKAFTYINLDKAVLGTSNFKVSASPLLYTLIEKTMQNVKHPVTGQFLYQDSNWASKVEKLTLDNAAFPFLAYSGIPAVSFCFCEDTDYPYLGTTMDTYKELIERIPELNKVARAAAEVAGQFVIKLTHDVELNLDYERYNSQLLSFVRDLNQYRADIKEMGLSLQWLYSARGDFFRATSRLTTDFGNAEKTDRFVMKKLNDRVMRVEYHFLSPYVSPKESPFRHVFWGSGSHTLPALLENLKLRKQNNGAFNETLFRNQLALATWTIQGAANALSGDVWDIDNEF
T2 sequence (chain, as listed by the source): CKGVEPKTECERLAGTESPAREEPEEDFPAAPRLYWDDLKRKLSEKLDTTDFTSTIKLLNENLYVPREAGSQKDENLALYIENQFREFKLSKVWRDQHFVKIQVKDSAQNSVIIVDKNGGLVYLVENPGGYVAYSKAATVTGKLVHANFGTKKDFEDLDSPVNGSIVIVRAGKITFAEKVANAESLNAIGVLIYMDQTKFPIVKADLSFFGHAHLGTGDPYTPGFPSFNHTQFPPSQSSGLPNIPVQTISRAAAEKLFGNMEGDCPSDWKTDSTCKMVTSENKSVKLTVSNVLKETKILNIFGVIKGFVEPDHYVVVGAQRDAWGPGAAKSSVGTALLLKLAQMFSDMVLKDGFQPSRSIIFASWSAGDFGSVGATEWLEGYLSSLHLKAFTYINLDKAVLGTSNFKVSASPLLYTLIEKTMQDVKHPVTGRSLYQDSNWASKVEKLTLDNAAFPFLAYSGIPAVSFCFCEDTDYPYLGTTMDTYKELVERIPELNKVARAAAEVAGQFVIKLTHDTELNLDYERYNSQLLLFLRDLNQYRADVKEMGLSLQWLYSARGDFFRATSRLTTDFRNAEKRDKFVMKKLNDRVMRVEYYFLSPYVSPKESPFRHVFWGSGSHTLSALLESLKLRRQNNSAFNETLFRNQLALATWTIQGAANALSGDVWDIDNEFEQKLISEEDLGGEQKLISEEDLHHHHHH
T1 sequence (P02786 other isoform, or with tags, fused parts or gaps): as the sequence (P02786 other isoform, or with tags, fused parts or gaps) above
T4 sequence (chain, as listed by the source): as the sequence (chain, as listed by the source) above

Row | Binder | 100 nM Ag Bound (RU) [2] | 100 nM Ag Bound (RU) [4] | koff [4] | kon [4] | t½ [4] | Kd [4] | binding result [6] | other results
1 | B1 |  |  |  |  |  |  |  | Kd [1]: 0.0656 nM
2 | B2 | 145 RU | 1080 RU | < 1e-05 s⁻¹ | 152000 M⁻¹ s⁻¹ | > 19.2 h |  |  | Kd [2]: 18.3 nM; koff [2]: 0.00298 s⁻¹; kon [2]: 163000 M⁻¹ s⁻¹; t½ [2]: 0.065 h; Kd [3]: ≤ 0.0656 nM
3 | B3 |  |  |  |  |  |  |  | Kd [5]: 20.5 nM; Kd [1]: 41 nM
4 | B4 | 13 RU | 1100 RU | 0.000199 s⁻¹ | 168000 M⁻¹ s⁻¹ | 0.965 h | 1.18 nM | no binding (tested: 100 nM) | 
5 | B5 | 1 RU | 9 RU |  |  |  |  | no binding (tested: 100 nM) | binding result [7]: no binding (tested: 100 nM)
6 | B6 | 11 RU | 660 RU | 5.33e-05 s⁻¹ | 118000 M⁻¹ s⁻¹ | 3.62 h | 0.448 nM | no binding (tested: 100 nM) | 
7 | B7 | 364 RU | 883 RU | < 1e-05 s⁻¹ | 122000 M⁻¹ s⁻¹ | > 19.2 h |  |  | Kd [2]: 1.16 nM; koff [2]: 7.13e-05 s⁻¹; kon [2]: 61000 M⁻¹ s⁻¹; t½ [2]: 2.7 h; Kd [3]: ≤ 0.0823 nM
8 | B8 |  |  |  |  |  |  |  | Kd [5]: 1.16 nM
9 | B9 | 4 RU | 1150 RU | 0.000116 s⁻¹ | 173000 M⁻¹ s⁻¹ | 1.66 h | 0.67 nM | no binding (tested: 100 nM) | 
10 | B10 | -7 RU | 6 RU |  |  |  |  |  | binding result [7]: no binding (tested: 100 nM)
